T1: IL-18 receptor (IL-18Rα/IL-18Rβ) overexpressed on HEK-Blue IL-18 cells (Homo sapiens (Human), UniProt Q13478 19-541; O95256 20-599)
T1 sequence 1: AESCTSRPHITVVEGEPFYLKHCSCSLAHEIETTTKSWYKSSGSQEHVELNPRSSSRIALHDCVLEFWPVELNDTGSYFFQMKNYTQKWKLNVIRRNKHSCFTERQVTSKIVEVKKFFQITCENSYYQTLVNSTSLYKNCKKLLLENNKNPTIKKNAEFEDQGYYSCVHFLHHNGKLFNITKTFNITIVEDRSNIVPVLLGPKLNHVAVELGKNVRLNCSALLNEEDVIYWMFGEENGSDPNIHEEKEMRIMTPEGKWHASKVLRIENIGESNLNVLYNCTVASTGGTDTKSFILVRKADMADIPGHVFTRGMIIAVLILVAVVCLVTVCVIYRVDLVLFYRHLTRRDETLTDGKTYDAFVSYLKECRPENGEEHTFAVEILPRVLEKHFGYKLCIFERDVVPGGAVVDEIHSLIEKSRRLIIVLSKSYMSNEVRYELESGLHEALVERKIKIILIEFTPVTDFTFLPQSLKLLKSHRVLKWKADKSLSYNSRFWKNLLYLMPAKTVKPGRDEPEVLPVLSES
T1 sequence 2: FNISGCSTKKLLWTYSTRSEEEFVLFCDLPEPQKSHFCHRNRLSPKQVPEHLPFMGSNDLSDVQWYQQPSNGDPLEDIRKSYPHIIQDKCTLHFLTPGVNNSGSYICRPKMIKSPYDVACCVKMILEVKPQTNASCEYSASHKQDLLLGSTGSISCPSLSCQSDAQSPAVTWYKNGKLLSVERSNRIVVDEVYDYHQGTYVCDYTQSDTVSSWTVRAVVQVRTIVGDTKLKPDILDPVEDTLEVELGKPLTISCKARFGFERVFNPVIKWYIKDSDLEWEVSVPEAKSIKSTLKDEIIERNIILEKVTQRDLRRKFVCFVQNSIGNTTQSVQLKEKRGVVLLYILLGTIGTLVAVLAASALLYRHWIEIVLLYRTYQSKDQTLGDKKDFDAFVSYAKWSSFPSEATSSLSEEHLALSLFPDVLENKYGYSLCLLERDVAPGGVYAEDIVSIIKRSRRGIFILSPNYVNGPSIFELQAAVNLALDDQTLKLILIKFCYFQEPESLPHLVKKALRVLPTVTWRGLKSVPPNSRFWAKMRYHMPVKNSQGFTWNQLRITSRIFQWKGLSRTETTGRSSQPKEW

B1: DGL245 (bispecific antibody, V domains shown)
V domain 1: EVQLVESGGGLVQPGGSLRLSCAASGFTLDYYTIGWFRQAPGKEREGVSCISSSGGSTNYADYVKGRFTISRDNAKNTVSLQMNSLKPEDTAVYYCAAESLIPLVETMCVMSVDDYDYWGQGTQVTVSS
V domain 2: QLQLVESGGGLVQAGGSLRLSCAASRSITFSHNVMGWYRQAPGKQRELVASIGSGGSTNYVDSVKGRATISRDNAKKTVYLQMNSLKPEDTAVYYCGVVVGVYRGSLGQGTQVTVSS
B2: DGL247 (bispecific antibody, V domains shown)
V domain 1: QVQLVESGGGSVQAGDSLRLSCAGSGRTFSSYVLGWFRQAPGKEREFVASISWSGDGTYYADSVKGRFTISRDNAENMVYLQMNSLKPEDTAVYYCAADGTTALAMSRLDASTYDFDYWGQGTQVTVSS
V domain 2: QLQLVESGGGLVQAGGSLRLSCAASRSITFSHNVMGWYRQAPGKQRELVASIGSGGSTNYVDSVKGRATISRDNAKKTVYLQMNSLKPEDTAVYYCGVVVGVYRGSLGQGTQVTVSS
B3: DGL249 (bispecific antibody, V domains shown)
V domain 1: QVQLVESGGGLVQPGGSLRLSCTASGSDLHHYAIGWFRQAPGKEREGVSCISTTGAGTNYADSVKGRFTISRDNAKNTVYLQMDSLKPEETAVYYCAADGPSAIAGCVRTVASMYRYWGQGAQVTVSS
V domain 2: QLQLVESGGGLVQAGGSLRLSCAASRSITFSHNVMGWYRQAPGKQRELVASIGSGGSTNYVDSVKGRATISRDNAKKTVYLQMNSLKPEDTAVYYCGVVVGVYRGSLGQGTQVTVSS
B4: DGL248 (bispecific antibody, V domains shown)
V domain 1: QLQLVESGGGLVQPGGSLRLSCAASGFTLDYYAISWFRQVPGKEREGVSCISSNGGSTAYADSVKGRFTISRDNTKNTAYLQMNSLKPEDTAIYYCAASARTIQAMCQRSNFPTRYDYWGQGTQVTVSS
V domain 2: QLQLVESGGGLVQAGGSLRLSCAASRSITFSHNVMGWYRQAPGKQRELVASIGSGGSTNYVDSVKGRATISRDNAKKTVYLQMNSLKPEDTAVYYCGVVVGVYRGSLGQGTQVTVSS
B5: DGL250 (bispecific antibody, V domains shown)
V domain 1: QVQLVESGGGLVQAGGSLRLSCAASGRTFSKHAMGWFRQAPGKEREFVAAIDWSGGSTYYADSVKGRFTISRDNAKNTVYLQMDSLKPEDTAVYYCAADSYTDYAQLWLPELESEYDYWGQGTQVTVSS
V domain 2: QLQLVESGGGLVQPGGSLRLSCAAPGRIFGLNAMGWYRQAPGKQRELVASITTGGSTNYADSGKGRFTLSRSNAQNTVYRQMNSLQPEDTAVYYCNAKRGLNLNYWGQGTQVTVSS
B6: DGL252 (bispecific antibody, V domains shown)
V domain 1: QVQLVESGGGLVQAGGSLRLSCAASGRTFSKHAMGWFRQAPGKEREFVAAIDWSGGSTYYADSVKGRFTISRDNAKNTVYLQMDSLKPEDTAVYYCAADSYTDYAQLWLPELESEYDYWGQGTQVTVSS
V domain 2: QVQLQESGGGLVQAGGSLRLSCAASASIFSRYAIGWYRQAPGKQRDLVAAITSGGTTNYADSVKGRFTISTDNAKNTVYLQMNSLKPEDTAVYSCAAGDSRANYYWGQGTQVTVSS
B7: DGL255 (bispecific antibody, V domains shown)
V domain 1: QVQLVESGGGLVQAGGSLRLSCAASGRTFSKHAMGWFRQAPGKEREFVAAIDWSGGSTYYADSVKGRFTISRDNAKNTVYLQMDSLKPEDTAVYYCAADSYTDYAQLWLPELESEYDYWGQGTQVTVSS
V domain 2: QVQLVESGGGLVQPGGSLRLSCAASRITFSIYDMGWYRQAPGKQRELVASITRRGSTNYADSTKGRFTISRDNGKNTMYLQGNSLKPEDTAVYYCNARDILGRDYWGQGTQVTVSS
B8: DGL251 (bispecific antibody, V domains shown)
V domain 1: QVQLVESGGGLVQAGGSLRLSCAASGRTFSKHAMGWFRQAPGKEREFVAAIDWSGGSTYYADSVKGRFTISRDNAKNTVYLQMDSLKPEDTAVYYCAADSYTDYAQLWLPELESEYDYWGQGTQVTVSS
V domain 2: EVQLVESGGGLVQTGGSLRLSCVASETITDTFRMGWYRQAPGQQRELVAAITHTSETTYGDSVTGRFTISGDTAKNMVHLQMNSLKPEDTGVYYCNIRAWRRPDYWGQGTQVTVSS
B9: DGL253 (bispecific antibody, V domains shown)
V domain 1: QVQLVESGGGLVQAGGSLRLSCAASGRTFSKHAMGWFRQAPGKEREFVAAIDWSGGSTYYADSVKGRFTISRDNAKNTVYLQMDSLKPEDTAVYYCAADSYTDYAQLWLPELESEYDYWGQGTQVTVSS
V domain 2: QVQLQESGGGLVQAGGSPRLSCAVSGTAFNINNFMGWYRQAPGKQRELVATITGSSTTNYASSVKGRFTISRDSAKNTVYLQMNSLKPEDTAVYYCNLRRGGWYNYWGQGTQVTVSS
B10: DGL254 (bispecific antibody, V domains shown)
V domain 1: QVQLVESGGGLVQAGGSLRLSCAASGRTFSKHAMGWFRQAPGKEREFVAAIDWSGGSTYYADSVKGRFTISRDNAKNTVYLQMDSLKPEDTAVYYCAADSYTDYAQLWLPELESEYDYWGQGTQVTVSS
V domain 2: QVQLVESGGGLVQAGGSLRLSCAASESIFSFVAMGWYRQAPGKQRELVVKISSGGSTNYADSVKGRFTISRDNAKNTVYLEMNSLKFEDTGVYYCNAVRPNGMDYWGKGTLVTVSS
B11: DGL293 (bispecific antibody, V domains shown)
V domain 1: QVQLVESGGGLVQAGGSLRLSCAASGRTFSSYDMGWFRQAPGKEREFVAALRWSGGSTSYADSVKGRFTISRDNAKNTVYLHMNSLKPEDTAVYYCAATLETDSGTYWADYWGQGTQVTVSS
V domain 2: QVQLVESGGDLVLPGGSLKLSCEASGSISSRNSMAWYRRAPGKQRELVAAISSISSGGRTDYADFVKGRFTIFRDTAKNMVYLQMNNLKPEDTAVYDCDDPIRVASLAYDDWGQGTQVTVSS
B12: DGL294 (bispecific antibody, V domains shown)
V domain 1: EVQLVESGGGLVQPGGSLRLSCAASGSIFSINAMGWYRQAPGKQREVVATSTGGGMTNYADSVKGRFTISRDNAKNTVYLQMNSLKPEDTAVYYCNADKDPFFPGDYWGQGTQVTVSS
V domain 2: QVQLVESGGDLVLPGGSLKLSCEASGSISSRNSMAWYRRAPGKQRELVAAISSISSGGRTDYADFVKGRFTIFRDTAKNMVYLQMNNLKPEDTAVYDCDDPIRVASLAYDDWGQGTQVTVSS
B13: DGL256 (bispecific antibody, V domains shown)
V domain 1: QVQLVESGGGLVQPGGSLRLSCTASGSDLHHYAIGWFRQAPGKEREGVSCISTTGAGTNYADSVKGRFTISRDNAKNTVYLQMDSLKPEETAVYYCAADGPSAIAGCVRTVASMYRYWGQGAQVTVSS
V domain 2: QVQLVESGGGLVQPGGSLRLSCAASRITFSIYDMGWYRQAPGKQRELVASITRRGSTNYADSTKGRFTISRDNGKNTMYLQGNSLKPEDTAVYYCNARDILGRDYWGQGTQVTVSS

biological target: T1, IL-18 receptor (IL-18Rα/IL-18Rβ) …; experiment: cell-based or functional assay

Question: With B1 as the binder, how does the “HEK-Blue IL-18: Abs 405” value read?
Answer: Its value is 2.1 Abs.

Question: What about the “HEK-Blue IL-18: Fold over Background” value of the same binder?
Answer: The value was 8.6 fold.

Question: Which “HEK-Blue IL-18: Abs 405” value does the source give for B2 here?
Answer: The value was 0.53 Abs.

Question: And the “HEK-Blue IL-18: Fold over Background” value?
Answer: The value was 2.2 fold.

Question: B3 was tested. Which “HEK-Blue IL-18: Abs 405” value did it give?
Answer: Its value is 0.12 Abs.

Question: And the “HEK-Blue IL-18: Fold over Background” value?
Answer: Its value is 0.5 fold.

Question: With B4 as the binder, how does the “HEK-Blue IL-18: Abs 405” value read?
Answer: Its value is 0.44 Abs.

Question: And the “HEK-Blue IL-18: Fold over Background” value?
Answer: Its value is 1.8 fold.

Question: Which results are given for B5?
Answer: HEK-Blue IL-18: Abs 405: 0.49 Abs; HEK-Blue IL-18: Fold over Background: 2 fold

Question: With B6 as the binder, how does the “HEK-Blue IL-18: Abs 405” value read?
Answer: The value was 0.32 Abs.

Question: What about the “HEK-Blue IL-18: Fold over Background” value of the same binder?
Answer: Its value is 1.3 fold.

Question: Which “HEK-Blue IL-18: Abs 405” value does the source give for B7 here?
Answer: The value was 0.32 Abs.

Question: And the “HEK-Blue IL-18: Fold over Background” value?
Answer: The value was 1.3 fold.

Question: B8 was tested. Which “HEK-Blue IL-18: Abs 405” value did it give?
Answer: Its value is 0.31 Abs.

Question: And the “HEK-Blue IL-18: Fold over Background” value?
Answer: The value was 1.3 fold.

Question: How did the “HEK-Blue IL-18: Abs 405” value turn out when B9 was run?
Answer: The value was 0.29 Abs.

Question: What about the “HEK-Blue IL-18: Fold over Background” value of the same binder?
Answer: Its value is 1.2 fold.

Question: Which results are given for B10?
Answer: HEK-Blue IL-18: Abs 405: 0.3 Abs; HEK-Blue IL-18: Fold over Background: 1.2 fold

Question: For B11, which “HEK-Blue IL-18: Abs 405” value is on record?
Answer: Its value is 2.83 Abs.

Question: What about the “HEK-Blue IL-18: Fold over Background” value of the same binder?
Answer: The value was 12.3 fold.

Question: What does the source list for B12?
Answer: HEK-Blue IL-18: Abs 405: 0.86 Abs; HEK-Blue IL-18: Fold over Background: 3.7 fold

Question: B13 was tested. Which “HEK-Blue IL-18: Abs 405” value did it give?
Answer: The value was 0.42 Abs.

Question: And the “HEK-Blue IL-18: Fold over Background” value?
Answer: The value was 1.7 fold.

Reference: US20240209100A1 (DIAGONAL THERAPEUTICS, published 2024)
